Numbered stars: 1 amine (or outer) side, 2 acyl side, 3 side chain; on linkers, the order of the positions; unused ones are H or OH. Bridge positions count the residues as written; N and C are the ends. Square brackets hold non-standard residues; d marks the D form. Side chains are listed from the residue outwards. * marks the point of attachment. γGlu = O=C(O)[C@H](CCC(=O)[*:2])N[*:1]; Palmitoyl = CCCCCCCCCCCCCCCC(=O)*; Aib = CC(C)(N)C(=O)O
B1: Compound 243 (peptide)
peptide: H-HSQGTFTSDYSKYLDSERAQDFVWLMNT-NH2
B2: Compound 254 (peptide)
peptide: H-HSQGTFTSDYSRYLDSRRAQDFVWLLNK-NH2
B3: Compound 12 (peptide)
peptide: H-HSQGTFTSDYSKYLDRARADDFVAWLKST-NH2
B4: Compound 263 (peptide)
peptide: H-H[Aib]QGTFTSDYSKYLDEK([γGlu-Palmitoyl])RAKDFIEWLLSA-NH2
SMILES: CCCCCCCCCCCCCCCC(=O)N[C@@H](CCC(=O)NCCCC[C@H](NC(=O)[C@H](CCC(=O)O)NC(=O)[C@H](CC(=O)O)NC(=O)[C@H](CC(C)C)NC(=O)[C@H](Cc1ccc(O)cc1)NC(=O)[C@H](CCCCN)NC(=O)[C@H](CO)NC(=O)[C@H](Cc1ccc(O)cc1)NC(=O)[C@H](CC(=O)O)NC(=O)[C@H](CO)NC(=O)[C@@H](NC(=O)[C@H](Cc1ccccc1)NC(=O)[C@@H](NC(=O)CNC(=O)[C@H](CCC(N)=O)NC(=O)C(C)(C)NC(=O)[C@@H](N)Cc1c[nH]cn1)[C@@H](C)O)[C@@H](C)O)C(=O)N[C@@H](CCCNC(=N)N)C(=O)N[C@@H](C)C(=O)N[C@@H](CCCCN)C(=O)N[C@@H](CC(=O)O)C(=O)N[C@@H](Cc1ccccc1)C(=O)N[C@H](C(=O)N[C@@H](CCC(=O)O)C(=O)N[C@@H](Cc1c[nH]c2ccccc12)C(=O)N[C@@H](CC(C)C)C(=O)N[C@@H](CC(C)C)C(=O)N[C@@H](CO)C(=O)N[C@@H](C)C(N)=O)[C@@H](C)CC)C(=O)O
B5: Compound 258 (peptide)
peptide: H-HSQGTFTSDYSRYLDERRAQDFVWLMNT-NH2
B6: Compound 257 (peptide)
peptide: H-HSQGTFTSDYSKYLDKRRAEDFVWLMNT-NH2
modifications: lactam 16-20
SMILES: CSCC[C@H](NC(=O)[C@H](CC(C)C)NC(=O)[C@H](Cc1c[nH]c2ccccc12)NC(=O)[C@@H](NC(=O)[C@H](Cc1ccccc1)NC(=O)[C@H](CC(=O)O)NC(=O)[C@@H]1CCC(=O)NCCCC[C@H](NC(=O)[C@H](CC(=O)O)NC(=O)[C@H](CC(C)C)NC(=O)[C@H](Cc2ccc(O)cc2)NC(=O)[C@H](CCCCN)NC(=O)[C@H](CO)NC(=O)[C@H](Cc2ccc(O)cc2)NC(=O)[C@H](CC(=O)O)NC(=O)[C@H](CO)NC(=O)[C@@H](NC(=O)[C@H](Cc2ccccc2)NC(=O)[C@@H](NC(=O)CNC(=O)[C@H](CCC(N)=O)NC(=O)[C@H](CO)NC(=O)[C@@H](N)Cc2c[nH]cn2)[C@@H](C)O)[C@@H](C)O)C(=O)N[C@@H](CCCNC(=N)N)C(=O)N[C@@H](CCCNC(=N)N)C(=O)N[C@@H](C)C(=O)N1)C(C)C)C(=O)N[C@@H](CC(N)=O)C(=O)N[C@H](C(N)=O)[C@@H](C)O
B7: Compound 260 (peptide)
peptide: H-HSQGTFTSDYSKYLDSKAAQDFVWLMNT-NH2
B8: Compound 259 (peptide)
peptide: H-HSQGTFTSDYSKYLDERRAQDFVWLMNT-NH2
modifications: lactam 12-16
SMILES: CSCC[C@H](NC(=O)[C@H](CC(C)C)NC(=O)[C@H](Cc1c[nH]c2ccccc12)NC(=O)[C@@H](NC(=O)[C@H](Cc1ccccc1)NC(=O)[C@H](CC(=O)O)NC(=O)[C@H](CCC(N)=O)NC(=O)[C@H](C)NC(=O)[C@H](CCCNC(=N)N)NC(=O)[C@H](CCCNC(=N)N)NC(=O)[C@@H]1CCC(=O)NCCCC[C@H](NC(=O)[C@H](CO)NC(=O)[C@H](Cc2ccc(O)cc2)NC(=O)[C@H](CC(=O)O)NC(=O)[C@H](CO)NC(=O)[C@@H](NC(=O)[C@H](Cc2ccccc2)NC(=O)[C@@H](NC(=O)CNC(=O)[C@H](CCC(N)=O)NC(=O)[C@H](CO)NC(=O)[C@@H](N)Cc2c[nH]cn2)[C@@H](C)O)[C@@H](C)O)C(=O)N[C@@H](Cc2ccc(O)cc2)C(=O)N[C@@H](CC(C)C)C(=O)N[C@@H](CC(=O)O)C(=O)N1)C(C)C)C(=O)N[C@@H](CC(N)=O)C(=O)N[C@H](C(N)=O)[C@@H](C)O
B9: Compound 215 (peptide)
peptide: H-H[Aib]QGTFTSDYSKYLDSK([3‑aminopropanoyl-Palmitoyl])AAHDFVEWLLSA-NH2
B10: Compound 245 (peptide)
peptide: H-HSQGTFTSDYSKYLDSRSAQDFVWLMNT-NH2
B11: Compound 252 (peptide)
peptide: H-HSQGTFTSDYSRYLDSRRAKDFVWLLNT-NH2
B12: Compound 204 (peptide)
peptide: H-HSQGTFTSDYSKYLDSKAAK([γGlu-Palmitoyl])DFVEWLLRA-NH2
SMILES: CCCCCCCCCCCCCCCC(=O)N[C@@H](CCC(=O)NCCCC[C@H](NC(=O)[C@H](C)NC(=O)[C@H](C)NC(=O)[C@H](CCCCN)NC(=O)[C@H](CO)NC(=O)[C@H](CC(=O)O)NC(=O)[C@H](CC(C)C)NC(=O)[C@H](Cc1ccc(O)cc1)NC(=O)[C@H](CCCCN)NC(=O)[C@H](CO)NC(=O)[C@H](Cc1ccc(O)cc1)NC(=O)[C@H](CC(=O)O)NC(=O)[C@H](CO)NC(=O)[C@@H](NC(=O)[C@H](Cc1ccccc1)NC(=O)[C@@H](NC(=O)CNC(=O)[C@H](CCC(N)=O)NC(=O)[C@H](CO)NC(=O)[C@@H](N)Cc1c[nH]cn1)[C@@H](C)O)[C@@H](C)O)C(=O)N[C@@H](CC(=O)O)C(=O)N[C@@H](Cc1ccccc1)C(=O)N[C@H](C(=O)N[C@@H](CCC(=O)O)C(=O)N[C@@H](Cc1c[nH]c2ccccc12)C(=O)N[C@@H](CC(C)C)C(=O)N[C@@H](CC(C)C)C(=O)N[C@@H](CCCNC(=N)N)C(=O)N[C@@H](C)C(N)=O)C(C)C)C(=O)O
B13: Compound 256 (peptide)
peptide: H-HSQGTFTSDYSKYLDKRRAEDFVWLMNT-NH2
B14: Compound 244 (peptide)
peptide: H-HSQGTFTSDYSKYLDSRHAQDFVWLMNT-NH2
B15: Compound 48 (peptide)
peptide: H-HSQGTFTSDYSKYLDSKAAHDFVEWLLRA-NH2
B16: Compound 246 (peptide)
peptide: H-HSQGTFTSDYSKYLDSRAAQDFVWLMNT-NH2
B17: Compound 250 (peptide)
peptide: H-HSQGTFTSDYSKYLDSRRAQDFVWLKRA-NH2
B18: Compound 255 (peptide)
peptide: H-HSQGTFTSDYSKYLDSALAQDFVWLLNT-NH2
B19: Compound 247 (peptide)
peptide: H-HSQGTFTSDYSKYLDSRYAQDFVWLMNT-NH2
B20: Compound 205 (peptide)
peptide: H-HSQGTFTSDYSKYLDSKAAHDFVEWLLK([γGlu-Palmitoyl])A-NH2
SMILES: CCCCCCCCCCCCCCCC(=O)N[C@@H](CCC(=O)NCCCC[C@H](NC(=O)[C@H](CC(C)C)NC(=O)[C@H](CC(C)C)NC(=O)[C@H](Cc1c[nH]c2ccccc12)NC(=O)[C@H](CCC(=O)O)NC(=O)[C@@H](NC(=O)[C@H](Cc1ccccc1)NC(=O)[C@H](CC(=O)O)NC(=O)[C@H](Cc1c[nH]cn1)NC(=O)[C@H](C)NC(=O)[C@H](C)NC(=O)[C@H](CCCCN)NC(=O)[C@H](CO)NC(=O)[C@H](CC(=O)O)NC(=O)[C@H](CC(C)C)NC(=O)[C@H](Cc1ccc(O)cc1)NC(=O)[C@H](CCCCN)NC(=O)[C@H](CO)NC(=O)[C@H](Cc1ccc(O)cc1)NC(=O)[C@H](CC(=O)O)NC(=O)[C@H](CO)NC(=O)[C@@H](NC(=O)[C@H](Cc1ccccc1)NC(=O)[C@@H](NC(=O)CNC(=O)[C@H](CCC(N)=O)NC(=O)[C@H](CO)NC(=O)[C@@H](N)Cc1c[nH]cn1)[C@@H](C)O)[C@@H](C)O)C(C)C)C(=O)N[C@@H](C)C(N)=O)C(=O)O
B21: Compound 251 (peptide)
peptide: H-HSQGTFTSDYSKYLDSRRAQDFVWLERA-NH2
B22: Compound 253 (peptide)
peptide: H-HSQGTFTSDYSRYLDSRRAQDFVWLLNT-NH2
B23: Compound 248 (peptide)
peptide: H-HSQGTFTSDYSKYLDSRRAQDFVWLESA-NH2

Target: human glucagon receptor (Glucagon-R) (human, UniProt P47871 26-477)
Assay: cell-based or functional assay

Chain of human glucagon receptor (Glucagon-R) (P47871 26-477): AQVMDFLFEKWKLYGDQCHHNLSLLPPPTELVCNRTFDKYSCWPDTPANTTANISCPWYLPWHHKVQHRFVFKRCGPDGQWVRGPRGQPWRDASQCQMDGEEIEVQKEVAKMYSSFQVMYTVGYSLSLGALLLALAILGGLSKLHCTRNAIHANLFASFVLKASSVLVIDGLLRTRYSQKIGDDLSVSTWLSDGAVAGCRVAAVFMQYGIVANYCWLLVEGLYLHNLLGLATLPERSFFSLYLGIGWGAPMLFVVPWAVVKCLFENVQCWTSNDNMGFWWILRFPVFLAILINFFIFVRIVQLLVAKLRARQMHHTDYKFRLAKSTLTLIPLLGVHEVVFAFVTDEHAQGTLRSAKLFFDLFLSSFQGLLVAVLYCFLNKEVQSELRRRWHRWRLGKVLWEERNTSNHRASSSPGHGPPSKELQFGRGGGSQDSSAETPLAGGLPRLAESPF

Binder | EC50 (nM) GuR; cAMP content, HEK293 cells expressing the human glucagon receptor
B1 | 0.06 nM
B2 | 0.2 nM
B3 | 0.5 nM
B4 | 0.16 nM
B5 | 0.06 nM
B6 | 0.09 nM
B7 | 0.07 nM
B8 | 0.03 nM
B9 | 1.87 nM
B10 | 0.05 nM
B11 | 0.3 nM
B12 | 0.04 nM
B13 | 0.07 nM
B14 | 0.05 nM
B15 | 0.06 nM
B16 | 0.05 nM

Target: human glucagon-like peptide 1 receptor (GLP-1R) (human, UniProt P43220 24-463)
Assay: cell-based or functional assay

Binder | EC50 (nM) GLP-1R; cAMP content, HEK293 cells expressing human GLP-1R
B2 | 0.2 nM
B17 | 0.3 nM
B3 | 0.23 nM
B18 | 0.24 nM
B5 | 0.07 nM
B19 | 0.3 nM
B7 | 0.02 nM
B8 | 0.04 nM
B11 | 0.5 nM
B20 | 0.09 nM
B13 | 0.2 nM
B14 | 0.5 nM
B15 | 0.06 nM
B21 | 0.2 nM
B22 | 0.2 nM
B16 | 0.3 nM
B23 | 0.5 nM

Reference: patent US20130157953A1, “TREATMENT OF CARDIAC CONDITIONS” (Zealand Pharma A/S, priority 2010, published 2013)
